For the experiment, the target named is T1, influenza A H3 hemagglutinin ectodomain trimer, A/Aichi/02/1968 (Influenza A virus A/Aichi/2/1968 (H3N2, …, UniProt P03437)).
T1 construct: source: Expi293, transient transfection, purified (Ni-NTA, SEC)
Briefly: ELISA. As to conditions: both partners purified.

B1: flu_c357 (antibody, V domains shown)
VH: EVQLVQSGAEVKKPGESLKISCKTSGFKFTSHWIAWVRQMPGKGLEWMGIIYPGDSDTRYNPSFEGQVTVSADKSINTAYLQWSSLKASDTAMYYCARLPHRESGNVSTTWGWFDPWGQGTLVTISS
VL: DIVLTQSPDSLAVSLGERATINCKSSHNVLYISNSKNYLAWYQQKPGQPPKLLIYWASTRESGVPDRFSGSGSGTDFTLTISSLQPEDVAVYYCQQYFSTPYTFGQGTRLEIK
notes: recombinant human IgG
Consider B1, for which the binding result was “binds”.

(Values after publication PMC10273302 (Science (New York, N.Y.), 2023).)
